Experiments:
[1] = Stability in rat serum in vitro, read as remaining activity in activating hGLP-1R; assay type: in vitro ADME; conditions: 37° C., activity at 0.03 nM, day 0 as 100%
From the text: The decay rate of protein activity indirectly reflects the stability of the protein in the serum.

Male C57BL/KsJ mice = experiment: Intraperitoneal glucose tolerance test (IPGTT) after a single s.c. dose; assay type: in vivo; conditions: s.c. 30 nmol/kg
Procedure: Male C57BL/KsJ mice of 6 weeks old are randomized into a vehicle control group, a positive drug group and a test protein group according to body weights and blood glucose levels, and are subcutaneously (s.c.) injected with corresponding drugs. An intraperitoneal glucose tolerance test (IPGTT) is performed after dosing for a period of time following the steps as follows: fast the mice for 6 h, collect blood samples from tail veins of the mice in each group before the test, measure the blood glucose levels with a Roche ACCU-CHEK blood glucose meter and record the results at a −60 min time point; measure blood glucose levels again at 0 min in each group before intraperitoneally injecting 2 g/kg glucose (body weight), afterwards measure and record blood glucose levels of mice in each group at 15 min, 30 min, 60 min and 120 min. An IPGTT curve is plotted based on the blood glucose levels to calculate the areas under curve (AUC0-120 min (mM*min)), and the differences are statistically analyzed using the t-test.

[2] = background statement; cited from earlier work
human GLP-1 receptor = human GLP-1 receptor (human, UniProt P43220 24-463); experiment: cell-based or functional assay

Row | Activity of Activated hGLP-1R (relative value from EC50, CRE-NanoLuc luciferase reporter in AD293 cells; 100% for GLP1 (7-37)) (human GLP-1 receptor) | Molecule | further results
1 | – | L1: L1 protein (dulaglutide, SEQ ID NO.: 11), GLP-1-Fc fusion protein, positive control, dimer [reference compound] | Decrease in activity after 7 days of incubation in serum [1]: 33.3%; Decrease of area under curve (AUC) in blood glucose vs solvent control group (Male C57BL/KsJ mice; seven days after a single dose, IPGTT AUC0-120 min): 14.8%; Hypoglycemic activity (AUC) ten days post-dose (Male C57BL/KsJ mice; ten days after a single dose, IPGTT): no significant decrease; half-life in vivo [2]: 108 to 113 h
2 | 121% | HGEGTFTSDVSSYLEEQAAKEFIAWLVKGGG [Gly8-Glu22-Gly36-GLP1(7-37)] | –
3 | 142% | HGEGTFTSDVSSYLEEQAAKEFIAWLVRGVG [Gly8-Glu22-Arg34-Val36-GLP1(7-37)] | –
4 | 168% | HGEGTFTSDVSSYLEEQAAKEFIAWLVRGAG [Gly8-Glu22-Arg34-Ala36-GLP1(7-37)] | –
5 | 113% | HGEGTFTSDVSSYLEEQAAKEFIAWLVRGLG [Gly8-Glu22-Arg34-Leu36-GLP1(7-37)] | –
6 | 163% | HGEGTFTSDVSSYLEEQAAKEFIAWLVRGGG [Gly8-Glu22-Arg34-Gly36-GLP1(7-37)] | –

From patent publication US20210253662A1, “Long-Acting Recombinant GLP1-Fc-CD47 Protein and Preparation and Use Thereof” (ZHEJIANG PALO ALTO PHARMACEUTICALS, INC, priority 2018, published 2021)
